{"source": "paper PMC5472792", "about": "“Bub1 positions Mad1 close to KNL1 MELT repeats to promote checkpoint signalling” (Nature Communications, 2017)", "key": {"Mad1 597–718": {"target": "T1, Mad1 597–718 (Homo sapiens, UniProt Q9Y6D9)", "T1 construct": "His (N); Strep (N); made in house; host or cells: E. coli BL21(DE3)", "T1 sequence (Q9Y6D9 597-718)": "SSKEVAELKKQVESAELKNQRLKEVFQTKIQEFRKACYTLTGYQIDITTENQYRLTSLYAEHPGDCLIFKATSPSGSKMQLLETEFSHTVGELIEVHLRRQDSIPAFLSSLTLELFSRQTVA", "test": "SPR, binding of CD1 peptides to Mad1 597–718 (steady-state affinity)", "conditions": "I471D and MFQ/RRK peptides with Thr461 phosphorylated; for effect of phosphorylation or mutation on binding to Mad1 597–718 (in words): SPR", "source_text": "To further investigate a possible direct interaction between Mad1 and CD1, we used surface plasmon resonance technology. […] To achieve a more efficient synthesis of CD1 peptides and in particularly of the phosphorylated peptides we used norleucine (Nle) instead of methionine (Met) but we cannot exclude that Mad1 will have a different affinity for peptides containing methionine. […] Given that Ser459 and Thr461 phosphorylation was critical for Bub1 functionality in vivo we tested if they affected Mad1 597–718 binding. […] As the Mad1 RLK motif is required for binding Bub1 in budding yeast in vivo[39], we tested whether this motif was required for direct binding to CD1 phosphorylated on Thr461. […] We furthermore analysed the binding of Mad1 597–718 to CD1 peptides harboring the Ile471Asp and […] (residues 474–476) mutations with Thr461 being phosphorylated.\nFigure 4 Direct binding of Mad1 to CD1 peptide. (a) SPR steady-state responses for control, WT, pS459, pT461, pS459/pT461, I471D, MFQ/RKK and control Bub1 CD1 peptides to purified Mad1 597–718 protein. The biotinylated peptides were captured on a streptavidin-coated CM5 chip and increasing concentrations of Mad1 were subsequently added for binding assessment. Empty symbols represent experimental data points from two technical replicates using the same chip. An additional independent experiment with two replicates has been performed giving in all cases consistent results. The equilibrium dissociation constants, KD, were calculated using a steady-state affinity model and the lines represent the best fit to the model. […] (b) Similar to a, SPR steady-state responses for pT461 peptide with purified Mad1 597–718 or Mad1 597–718 RLK/AAA or the Mad1 485–718/Mad2 complex. (c) Sequence and summary of the affinity of CD1 peptides for Mad1 597–718 as determined by SPR.\nBub1 peptides were purchased from Biosyntan Gmbh (Germany). The purity obtained in the synthesis was 95–98% as determined by high-performance liquid chromatography (HPLC) and the identity of the peptides was confirmed by mass spectrometry. SPR experiments were performed on a Biacore T200 (GE Healthcare) at 25 °C. Streptavidin (ThermoFisher Scientific) at 0.05 mg ml^−1 in 10 mM sodium acetate, pH 4.5, was directly immobilized on a CM5 sensor chip (GE Healthcare) by standard amine coupling chemistry with N-hydroxysuccinimide and N-ethly-N′-(3-dimethlyaminopropyl)carbodiimide up to an immobilization level of approximately 2000 RU. Unreacted sites were quenched with ethanolamine HCl. Subsequently, N-terminal biotinylated Bub1 peptides (at 10 nM in HBS-EP+ buffer and flow rate 5 μl min^−1) were captured at ∼50 RU, respectively, in channels 2, 3 and 4 of the streptavidin coated chip, leaving channel 1 free for reference. An identical approach was used to prepare a second CM5 chip with the negative controls. In this case, a N-terminal biotinylated 5A mutant, a non-related phosphorylated peptide and the Bub1 pT461 peptide were captured, respectively, in channels 2, 3 and 4. HBS-EP+ (10 mM Hepes, pH 7.4, 150 mM NaCl, 3 mM EDTA, 0.05% (v/v) Surfactant P20) was used as running buffer for both streptavidin immobilization and peptide capture. […] Sensorgrams were analysed after double referencing. […]"}, "His-Strep-Mad1 597–718": {"target": "T2, His-Strep-Mad1 597–718 (human, UniProt Q9Y6D9 597-718)", "T2 construct": "composition confirmed by multi-angle light scattering; also called Mad1 C-terminal fragment; source: E. coli BL21(DE3), purified (HiTrap Ni column, Superdex 75)", "T2 sequence (looked up)": "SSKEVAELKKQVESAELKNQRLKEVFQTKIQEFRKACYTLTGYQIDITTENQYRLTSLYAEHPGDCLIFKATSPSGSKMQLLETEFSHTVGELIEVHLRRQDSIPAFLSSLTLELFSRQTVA", "test": "SPR; N-terminally biotinylated Bub1 peptides captured (~50 RU) on a streptavidin-coated CM5 chip, Mad1 proteins injected; Biacore T200, 25 °C; 25 mM Tris pH 7.8, 150 mM NaCl, 10 mM MgCl2, 0.25 M TCEP, 0.005% Surfactant P-20; steady-state affinity model", "conditions": "both partners purified"}, "GST-Bub1 425–500": {"system": "GST-Bub1 425–500", "test": "In vitro phosphorylation of GST-Bub1, mass spectrometry", "assay_type": "biochemical, human", "experimental": "To identify mitotic kinases able to phosphorylate Bub1 on Ser459 and Thr461 we performed in vitro phosphorylation assays with candidate kinases.\nA similar set-up was used for analysing the phosphorylated GST-Bub1 except that an EASY-nLC 1200 UHPLC system connected to an Orbitrap Q-Exactive HF was used and the acetonitrile gradient was run for 77 min. The samples were analysed using a ‘fast' acquisition mode with a normalized collision energy (NCE) of 25 and raw data analysed with MaxQuant software suit version 1.5.7.4.\nGST- Bub1 (425–500) was expressed in BL21(DE3) cells at 18 °C overnight with 0.5 mM IPTG in the medium. The bacteria were lysed in 50 mM Tris-HCl pH 7.4, 300 mM NaCl, 10% glycerol, 5 mM β-mercaptoethanol, 1 mM PMSF, plus Complete-EDTA free protease inhibitors (Roche) using a high pressure homogenizer. Lysates were cleared by centrifugation and incubated with pre-equilibrated Glutathione-Fast Flow (GE Healthcare) beads for 2 h at 4 °C and eluted with GST-elution buffer at room temperature (50 mM Tris pH 8.8, 300 mM NaCl, 10% glycerol, 5 mM β-mercaptoethanol, 20 mM reduced glutathione). Elutions were pooled and run on Superdex 200 column (GE Healthcare) in PBS with 8.7% glycerol and 5 mM mercaptoethanol. Peak fractions were aliquoted and stored at −80 °C.\n500 μM ATP and 125 nM Calyculin A (Cell Signaling) were added and the reactions were incubated at 30 °C for 1 h. Controls were incubated in kinase buffer and Calyculin A only. 6 μg of phosphorylated protein was resolved on NuPAGE Novex 4–12% Bis-Tris protein gels, which were fixed and stained by Colloidal Blue Staining (Thermo Scientific). The band corresponding to GST-Bub1 was cut out and analysed by mass spectrometry."}, "[1]": {"conditions": "GST-Bub1 425-500, 30 °C for 1 h, 500 μM ATP, LC-MS, kinase-free control 0"}}, "note": "Square brackets hold non-standard residues; d marks the D form. Ends that are not written are not given here. Peptide text beside a SMILES is read from it. * marks the point of attachment. Biotin = O=C1N[C@H]2[C@H](CS[C@H]2CCCCC(=O)*)N1; pT = C[C@@H](OP(=O)(O)O)[C@H](N)C(=O)O; pS = N[C@@H](COP(=O)(O)O)C(=O)O; Nle = CCCC[C@H](N)C(=O)O", "data": [{"molecule": "CD1 control: control CD1 peptide with mutations of residues 461–465 to Ala (Biotin-VQATPSKVQPSPAAAAAEALGFI[Nle]N[Nle]FQAPTL)", "values": [{"measurement": "KD", "setting": "Mad1 597–718; SPR Biacore T200, 25 °C, N-terminal biotinylated peptide on streptavidin CM5 chip, Mad1 597–718 injected up to 500 μM, pH 7.8, steady-state affinity model, two technical replicates, additional independent experiment consistent", "value": "no binding"}]}, {"molecule": "CD1 I471D: CD1 peptide harboring the Ile471Asp mutation with Thr461 being phosphorylated (Biotin-VQATPSKVQPSP[pT]VHTKEALGFD[Nle]N[Nle]FQAPTL)", "values": [{"measurement": "effect of phosphorylation or mutation on binding to Mad1 597–718 (in words)", "setting": "Mad1 597–718; listed as I471D", "value": "prevent Mad1 binding"}, {"measurement": "effect of phosphorylation or mutation on binding to Mad1 597–718 (in words)", "setting": "Mad1 597–718; listed as Ile471Asp", "value": "blocked the binding of Mad1 to CD1"}]}, {"molecule": "CCCC[C@H](NC(=O)[C@H](CC(N)=O)NC(=O)[C@H](CCCC)NC(=O)[C@@H](NC(=O)[C@H](Cc1ccccc1)NC(=O)CNC(=O)[C@H](CC(C)C)NC(=O)[C@H](C)NC(=O)[C@H](CCC(=O)O)NC(=O)[C@H](CCCCN)NC(=O)[C@@H](NC(=O)[C@H](Cc1c[nH]cn1)NC(=O)[C@@H](NC(=O)[C@@H](NC(=O)[C@@H]1CCCN1C(=O)[C@H](COP(=O)(O)O)NC(=O)[C@@H]1CCCN1C(=O)[C@H](CCC(N)=O)NC(=O)[C@@H](NC(=O)[C@H](CCCCN)NC(=O)[C@H](CO)NC(=O)[C@@H]1CCCN1C(=O)[C@@H](NC(=O)[C@H](C)NC(=O)[C@H](CCC(N)=O)NC(=O)[C@@H](NC(=O)CCCC[C@@H]1SC[C@@H]2NC(=O)N[C@@H]21)C(C)C)[C@@H](C)O)C(C)C)[C@@H](C)O)C(C)C)[C@@H](C)O)[C@@H](C)CC)C(=O)N[C@@H](Cc1ccccc1)C(=O)N[C@@H](CCC(N)=O)C(=O)N[C@@H](C)C(=O)N1CCC[C@H]1C(=O)N[C@H](C(=O)N[C@@H](CC(C)C)C(=O)N[C@@H](Cc1c[nH]c2ccccc12)C(=O)O)[C@@H](C)O", "note": "[CD1 pS459] (Biotin-VQATPSKVQP[pS]PTVHTKEALGFI[Nle]N[Nle]FQAPTLW-OH; C-terminus assumed)", "values": [{"measurement": "effect of phosphorylation or mutation on binding to Mad1 597–718 (in words)", "setting": "Mad1 597–718", "value": "did not stimulate the interaction"}]}, {"molecule": "Biotin-VQATPSKVQP[pS]P[pT]VHTKEALGFI[Nle]N[Nle]FQAPTL (peptide, UniProt O43683 449-480, looked up, Bub1, human, residues 449–480; also called pS459/pT461; source: synthetic peptide, bought: Biosyntan Gmbh)", "note": "[CD1 peptide phosphorylated on Ser459 and Thr461]", "values": [{"measurement": "Kd", "setting": "His-Strep-Mad1 597–718", "value": 16, "unit": "µM"}]}, {"molecule": "Biotin-VQATPSKVQPSPTVHTKEALGFI[Nle]N[Nle]FQAPTL (peptide, UniProt O43683 449-480, looked up, Bub1, human, residues 449–480 (CD1 and surrounding residues); also called WT; unphosphorylated CD1 peptide; source: synthetic peptide, bought: Biosyntan Gmbh)", "note": "[biotinylated CD1 peptide (residues 449–480), unphosphorylated]", "values": [{"measurement": "Kd", "setting": "His-Strep-Mad1 597–718", "value": 304, "unit": "µM"}]}, {"molecule": "Mps1: purified kinase (Life Technologies) (protein, UniProt P33981 1-857, looked up) Dual specificity protein …: MESEDLSGRELTIDSIMNKVRDIKNKFKNEDLTDELSLNKISADTTDNSGTVNQIMMMANNPEDWLSLLLKLEKNSVPLSDALLNKLIGRYSQAIEALPPDKYGQNESFARIQVRFAELKAIQEPDDARDYFQMARANCKKFAFVHISFAQFELSQGNVKKSKQLLQKAVERGAVPLEMLEIALRNLNLQKKQLLSEEEKKNLSASTVLTAQESFSGSLGHLQNRNNSCDSRGQTTKARFLYGENMPPQDAEIGYRNSLRQTNKTKQSCPFGRVPVNLLNSPDCDVKTDDSVVPCFMKRQTSRSECRDLVVPGSKPSGNDSCELRNLKSVQNSHFKEPLVSDEKSSELIITDSITLKNKTESSLLAKLEETKEYQEPEVPESNQKQWQSKRKSECINQNPAASSNHWQIPELARKVNTEQKHTTFEQPVFSVSKQSPPISTSKWFDPKSICKTPSSNTLDDYMSCFRTPVVKNDFPPACQLSTPYGQPACFQQQQHQILATPLQNLQVLASSSANECISVKGRIYSILKQIGSGGSSKVFQVLNEKKQIYAIKYVNLEEADNQTLDSYRNEIAYLNKLQQHSDKIIRLYDYEITDQYIYMVMECGNIDLNSWLKKKKSIDPWERKSYWKNMLEAVHTIHQHGIVHSDLKPANFLIVDGMLKLIDFGIANQMQPDTTSVVKDSQVGTVNYMPPEAIKDMSSSRENGKSKSKISPKSDVWSLGCILYYMTYGKTPFQQIINQISKLHAIIDPNHEIEFPDIPEKDLQDVLKCCLKRDPKQRISIPELLAHPYVQIQTHPVNQMAKGTTEEMKYVLGQLVGLNSPNSILKAAKTLYEHYSGGESHNSSSSKTFEKKRGKK", "values": [{"measurement": "intensity of phospho-peptide 456-VQPS(Phos)PTVHTK (pS459)", "setting": "GST-Bub1 425–500; [1]", "value": 0}, {"measurement": "intensity of phospho-peptide 456-VQPSPT(Phos)VHTK (pT461)", "setting": "GST-Bub1 425–500; [1]", "value": "7,84 E+08"}, {"measurement": "phosphorylation of GST-Bub1 425–500 (in words)", "setting": "GST-Bub1 425–500; Ser459 and Thr461, mass spectrometry", "value": "phosphorylation of Thr461 but no phosphorylation on Ser459"}]}]}
